Source: patent publication US20190211317A1, “PEPTIDES AND NANOPARTICLES FOR INTRACELLULAR DELIVERY OF GENOME-EDITING MOLECULES” (Aadigen, LLC, priority 2016, published 2019)
pKd: −log10 of the molar value.

Target: CY5-CAS9:sgRNA complex (1:1 molar ratio) (S. pyogenes) (UniProt Q99ZW2)
Test: fluorescence titration of 5 nM CY5-CAS9:sgRNA (1:1) with increasing peptide, quadratic fit

CADY (peptide)
pKd: 7.68
